Experimental data as given in publication PMC5667986.

Target: low-density lipoprotein receptor-related protein-1 (LRP-1), endogenous, human cells (human (endogenous in FTC-133))

β1-integrin, endogenous, human cells (from UniProt P05556 21-798) (receptor)
biotin-based internalisation of cell surface β1-integrin in FTC-133 cells (10 min at 37°C), decrease with 500 nM RAP against untreated cells: 2 fold
percentage of Rab5a early endosomes positive for β1-integrin in FTC-133 cells (confocal), reduction with 500 nM RAP against control cells: 25%
